Source: US20140178332A1 (published 2014)

Tests used:
[1] = target: T1, recombinant purified mouse IL-12 (Peprotech) (mouse, UniProt P43432 23-335; P43431 23-215); assay: indirect ELISA, mAb captured on anti-mouse IgG Fc, mouse IL-12 at 0.2 ug/ml
T1 construct: Bought reagent; also called mu IL-12; murine IL-12
T1 sequence (looked up) 1: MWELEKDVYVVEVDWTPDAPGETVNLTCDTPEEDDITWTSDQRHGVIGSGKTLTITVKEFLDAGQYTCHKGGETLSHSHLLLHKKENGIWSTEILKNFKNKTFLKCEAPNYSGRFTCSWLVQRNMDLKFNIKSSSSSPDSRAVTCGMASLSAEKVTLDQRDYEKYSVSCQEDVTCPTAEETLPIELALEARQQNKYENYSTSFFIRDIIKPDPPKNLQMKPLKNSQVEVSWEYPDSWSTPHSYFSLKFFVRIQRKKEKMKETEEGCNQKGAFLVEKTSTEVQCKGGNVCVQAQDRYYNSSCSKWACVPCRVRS
T1 sequence (looked up) 2: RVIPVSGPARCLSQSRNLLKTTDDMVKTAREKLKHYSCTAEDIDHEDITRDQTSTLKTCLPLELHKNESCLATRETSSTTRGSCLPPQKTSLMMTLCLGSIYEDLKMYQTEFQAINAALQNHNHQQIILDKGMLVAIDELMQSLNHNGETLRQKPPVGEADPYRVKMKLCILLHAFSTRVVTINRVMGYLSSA
Method: Second, an indirect ELISA was set up by coating ELISA plates with 5 ug/ml of goat anti-mouse IgG, Fc fragment specific antibody (Pierce #31170, Rockland, Ill.). Murine anti-human IL-12 p40 mAbs were prepared at various concentrations ranging from 0.1 to 100 ng/ml in PBS containing 0.1% BSA; 50 ul of each antibody dilution was added to the coated ELISA plate and incubated for 1 hour at room temperature. Wells were washed 3 times with PBS containing 0.05% Tween-20. Recombinant purified mouse IL-12 (Preprotech) was diluted at 0.2 ug/ml in PBS containing 0.1% BSA; 50 ul/well was added and the plates incubated for 1 hour at room temperature. Wells were washed 3 times with PBS containing 0.05% Tween-20. Biotinylated anti-mouse IL-12 antibody (R&D # BAF419) was diluted at 0.2 ug/ml in PBS containing 0.1% BSA; 50 ul/well was added and the plates incubated for 1 hour at room temperature. Wells were washed 3 times with PBS containing 0.05% Tween-20. Streptavidin HRP (Pierce #21126, Rockland, Ill.) was diluted 1:20000 in PBS containing 0.1% BSA; 50 μL/well was added and the plates incubated for 1 hour at room temperature. Plates were washed 3 times with PBS containing 0.05% Tween-20. Fifty microliters of TMB solution was added to each well and incubated for 10 minutes at room temperature. […] Plates were read spectrophotmetrically at a wavelength of 450 nm.

[2] = target: T2, recombinant purified human IL-12 p70 (human, UniProt P29459 23-219); assay: competition ELISA on coated human IL-12, competitor of 0.8 µg/ml biotinylated 8E1, Expt. 1
T2 construct: Disulfide-linked heterodimer of p35 and p40; also called hIL-12; Hu IL-12
T2 sequence 1: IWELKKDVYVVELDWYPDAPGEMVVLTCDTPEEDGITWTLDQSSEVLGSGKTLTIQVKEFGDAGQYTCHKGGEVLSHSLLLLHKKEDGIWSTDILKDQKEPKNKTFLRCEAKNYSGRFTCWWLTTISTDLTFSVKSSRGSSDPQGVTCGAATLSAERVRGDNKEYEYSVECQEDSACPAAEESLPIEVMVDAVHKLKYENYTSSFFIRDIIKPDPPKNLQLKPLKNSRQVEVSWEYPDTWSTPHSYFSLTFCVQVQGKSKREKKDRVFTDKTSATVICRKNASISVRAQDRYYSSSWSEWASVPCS
T2 sequence 2: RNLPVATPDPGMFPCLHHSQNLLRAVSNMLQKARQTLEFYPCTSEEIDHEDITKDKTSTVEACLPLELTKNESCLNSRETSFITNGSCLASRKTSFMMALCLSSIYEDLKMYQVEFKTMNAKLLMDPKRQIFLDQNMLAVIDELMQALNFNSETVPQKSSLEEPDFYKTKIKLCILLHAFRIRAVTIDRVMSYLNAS
Method: MaxiSorp ELISA plates (Nalge Nunc International) were coated overnight at 4° C. with 100 μl/well of 1.0 μg/ml human IL-12 in 0.2 M sodium carbonate-bicarbonate buffer, pH 9.4, washed with Wash Buffer (PBS containing 0.1% Tween 20), and blocked for 1 hr at room temperature with 300 μl/well of SuperBlock Blocking Buffer in TBS (Pierce Chemical Company). […] As isotype controls, 100 μl/well of 100 μg/ml mouse IgG 1/κ (MuFd79) or humanized IgG1/κ (HuFd79) monoclonal antibodies in ELISA buffer was used. As a no-competitor control, 100 μl/well of ELISA Buffer was used. After incubating the plates for 1 hr at room temperature, and washing with Wash Buffer, bound antibodies were detected using 100 μl/well of 1 μg/ml HRP-conjugated streptavidin (Pierce Chemical Company) in ELISA buffer. After incubating for 1 hr at room temperature, and washing with Wash Buffer, color development was performed by adding 100 μl/well of ABTS Peroxidase Substrate/Peroxidase Solution B (KPL, Inc.). After incubating for 5 min at room temperature, color development was stopped by adding 50 μl/well of 2% oxalic acid. Absorbance was read at 415 nm.
The affinity of 8E1.4, 8E1.5 and 8E1.6 to human IL-12 was analyzed by competition ELISA as described above.

IC50 [2]: 2.63 µg/mL
B1: murine anti-human IL-12p40 monoclonal antibody 8E1 (antibody, V domains shown)
VH: EVKLVESGGGLVQPGGSRKLSCAASGFTFSDYGMVWVRQAPGKGLEWVASISSGSSNIYYADTVKGRFTISRDDPNNTLFLQMRSLRSEDTAMYYCARNPYWGQGTTLTVSS
VL: DIVMTQSQKFMSTSVGDRVSVTCKASQNVGTNVAWYQQKPGQSPKGLIYSASHRYSGVPDRFAGSGSGTDFTLTISNVQSEDLAEYFCQQYNSYPLTFGGGTKLELKR
notes: Murine mAb; also called biotinylated 8E1
binding result [1]: no binding (tested: 0.1 to 100 ng/ml mAb)
